{"source": "patent US20090158456", "key": {"[1]": {"system": "recombinant GST-CcHCT fusion protein (pGTPc103a_HCT)"}, "[2]": {"system": "recombinant GST-CcHQT fusion protein (pGTPc103a_HQT)"}}}
{"substance": "AcTEV protease", "values": [{"measurement": "SDS PAGE gel electrophoresis and coomassie staining after AcTEV digestion", "setting": "[1]", "result": "generate a smaller polypeptide with the expected molecular weight of the full length proteins from each of the GST-tagged \"precursor\" proteins"}, {"measurement": "SDS PAGE gel electrophoresis and coomassie staining after AcTEV digestion", "setting": "[2]", "result": "generate a smaller polypeptide with the expected molecular weight of the full length proteins from each of the GST-tagged \"precursor\" proteins"}]}
